Tested on: Escherichia coli TOP10
Test: shrunken log2 fold change of peptide-encoding DNA abundance (4.5 h post-induction vs induction); higher = less antimicrobial activity (less host growth inhibition)
Settings: time post-induction: 4.5 h; library: site-saturation at positions 5, 18, 19, 20
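Further: peptides expressed intracellularly from a pBAD plasmid library in pooled LB shake-flask culture, induced with 0.3% L-arabinose, DNA abundance read by NGS, three biological replicates, DESeq2 with apeglm shrinkage.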

Row | Sequence | shrunken log2 fold change
1 | RRIRDRPPRLPRPRPRPGVAPRP | 0.76
2 | RRIRDRPPRLPRPRPRPGWNPRP | 0.69
3 | RRIRDRPPRLPRPRPRPHACPRP | 0.00242
4 | RRIRDRPPRLPRPRPRPHAKPRP | 0.0435
5 | RRIRDRPPRLPRPRPRPHCDPRP | -0.0666
6 | RRIRDRPPRLPRPRPRPHCGPRP | 0.00511
7 | RRIRDRPPRLPRPRPRPHDGPRP | 0.1
8 | RRIRDRPPRLPRPRPRPHEMPRP | -0.0853
9 | RRIRDRPPRLPRPRPRPHESPRP | -0.0121
10 | RRIRDRPPRLPRPRPRPHFVPRP | -0.193
11 | RRIRDRPPRLPRPRPRPHGQPRP | 0.237
12 | RRIRDRPPRLPRPRPRPHIPPRP | 2.08
13 | RRIRDRPPRLPRPRPRPHIVPRP | -0.146
14 | RRIRDRPPRLPRPRPRPHKEPRP | -0.00521
15 | RRIRDRPPRLPRPRPRPHKIPRP | -0.524
16 | RRIRDRPPRLPRPRPRPHLHPRP | -0.0995
17 | RRIRDRPPRLPRPRPRPHLKPRP | 0.143
18 | RRIRDRPPRLPRPRPRPHLTPRP | 0.176
19 | RRIRDRPPRLPRPRPRPHMFPRP | -0.0389
20 | RRIRDRPPRLPRPRPRPHNAPRP | -0.0997
21 | RRIRDRPPRLPRPRPRPHNLPRP | 0.156
22 | RRIRDRPPRLPRPRPRPHPKPRP | -0.149
23 | RRIRDRPPRLPRPRPRPHQCPRP | -0.0903
24 | RRIRDRPPRLPRPRPRPHRGPRP | -0.0201
25 | RRIRDRPPRLPRPRPRPHSGPRP | -0.0339
26 | RRIRDRPPRLPRPRPRPHSNPRP | 0.0359
27 | RRIRDRPPRLPRPRPRPHSYPRP | -0.0739
28 | RRIRDRPPRLPRPRPRPHTFPRP | -0.111

Row | Sequence | shrunken log2 fold change
29 | RRIRDRPPRLPRPRPRPHTPPRP | 0.0203
30 | RRIRDRPPRLPRPRPRPHVTPRP | -0.631
31 | RRIRDRPPRLPRPRPRPHYNPRP | -0.635
32 | RRIRDRPPRLPRPRPRPHYSPRP | -0.16
33 | RRIRDRPPRLPRPRPRPICHPRP | 0.139
34 | RRIRDRPPRLPRPRPRPICVPRP | -0.109
35 | RRIRDRPPRLPRPRPRPIEFPRP | 0.144
36 | RRIRDRPPRLPRPRPRPIFDPRP | 0.0515
37 | RRIRDRPPRLPRPRPRPIFGPRP | 0.0916
38 | RRIRDRPPRLPRPRPRPIFIPRP | -0.345
39 | RRIRDRPPRLPRPRPRPIFKPRP | -0.118
40 | RRIRDRPPRLPRPRPRPIHHPRP | -0.649
41 | RRIRDRPPRLPRPRPRPIHKPRP | -0.275
42 | RRIRDRPPRLPRPRPRPIKEPRP | -0.015
43 | RRIRDRPPRLPRPRPRPIKPPRP | -0.00115
44 | RRIRDRPPRLPRPRPRPILIPRP | -0.0335
45 | RRIRDRPPRLPRPRPRPILKPRP | 0.0239
46 | RRIRDRPPRLPRPRPRPINHPRP | -0.229
47 | RRIRDRPPRLPRPRPRPIPKPRP | -0.0116
48 | RRIRDRPPRLPRPRPRPIRAPRP | 0.0872
49 | RRIRDRPPRLPRPRPRPIRIPRP | -0.0935
50 | RRIRDRPPRLPRPRPRPISIPRP | 0.0218
51 | RRIRDRPPRLPRPRPRPITKPRP | 0.283
52 | RRIRDRPPRLPRPRPRPIVMPRP | -0.0257
53 | RRIRDRPPRLPRPRPRPIYAPRP | -0.288
54 | RRIRDRPPRLPRPRPRPKASPRP | 0.224
55 | RRIRDRPPRLPRPRPRPKAVPRP | -0.00884

Source: the supplement of paper PMC9112550, “Optimization of the antimicrobial peptide Bac7 by deep mutational scanning” (BMC Biology, 2022)
